# Measured values taken from publication PMC11998489.
# Experiments:
# Assay in all cases: split reporter (BiFC, NanoBiT); mCherry BiFC (Nm and Cm fusions) in Sf9 cells transfected with a pair of plasmids (2 ug/well each); 36 h p.t.; epifluorescence microscopy; percentage of fluorescent cells in each field
# [1] = target: Hse1 (BiFC fusion) (S. frugiperda)
# [2] = target: Vps27 (BiFC fusion) (S. frugiperda)
# [3] = target: Vps25 (BiFC fusion) (S. frugiperda)
# [4] = target: Vps36 (BiFC fusion) (S. frugiperda)
substance,measurement,setting,value
Chm7 (BiFC fusion) (natural protein),percentage of fluorescent cells in BiFC,[1],5%
Tsg101 (BiFC fusion) (natural protein),percentage of fluorescent cells in BiFC,[2],5%
same,percentage of fluorescent cells in BiFC,[3],5%
Vps2B (BiFC fusion) (natural protein),percentage of fluorescent cells in BiFC,[1],5%
Vps28 (BiFC fusion) (natural protein),percentage of fluorescent cells in BiFC,[4],5%
